For experiment [1], the target named is T1, Recombinant His-tagged Tra1 (3200–3744) (S. cerevisiae, UniProt P38811 3200-3744).
T1 construct: Tra1, S. cerevisiae, residues 3200–3744 (FRB-PI3K-FATC); also called recombinant Tra1 C-terminus (FRB-PI3K-FATC); source: recombinant, bacterial culture, purified (Ni-NTA, eluted with imidazole)
T1 sequence (looked up): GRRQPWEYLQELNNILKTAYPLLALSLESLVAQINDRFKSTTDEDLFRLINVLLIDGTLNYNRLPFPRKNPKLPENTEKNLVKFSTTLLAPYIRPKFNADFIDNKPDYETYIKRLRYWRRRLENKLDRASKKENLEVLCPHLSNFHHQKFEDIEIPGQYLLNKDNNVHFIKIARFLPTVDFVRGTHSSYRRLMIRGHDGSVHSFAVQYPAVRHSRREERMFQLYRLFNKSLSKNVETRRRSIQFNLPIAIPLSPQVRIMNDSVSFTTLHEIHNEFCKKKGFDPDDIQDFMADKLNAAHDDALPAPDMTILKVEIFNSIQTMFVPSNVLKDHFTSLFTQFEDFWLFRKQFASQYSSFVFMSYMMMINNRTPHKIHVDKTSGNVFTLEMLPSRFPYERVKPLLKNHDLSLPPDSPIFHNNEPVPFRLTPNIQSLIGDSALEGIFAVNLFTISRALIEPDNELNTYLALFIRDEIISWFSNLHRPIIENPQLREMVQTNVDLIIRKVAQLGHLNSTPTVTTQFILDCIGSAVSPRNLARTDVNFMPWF
As to the kind of experiment: pull-down; 300–600 ng GST-tagged Eaf1 fragments immobilised on glutathione sepharose, incubated with purified native TINTIN or His-tagged Tra1 (3200–3744) for 3–4 h at 4 °C; binding buffer 25 mM HEPES pH 7.5, 100 mM NaCl, 10% glycerol, 0.1% Tween-20; western blotting (anti-TAP, anti-Eaf3, anti-His). Conditions: both partners purified. In general terms: In western blotting, separated proteins are transferred to a membrane and probed.

Experiment [2] deals with T2, Purified native TINTIN (Eaf5-Eaf7-Eaf3) (S. cerevisiae, UniProt P39995 1-279; P53911 1-425; Q12432 1-401).
T2 construct: Eaf5, S. cerevisiae; Eaf7, S. cerevisiae; Eaf3, S. cerevisiae; The pull-down blots used anti-TAP and anti-Eaf3, so one subunit probably carries a TAP tag or its remnant; also called TINTIN subcomplex; source: purified native TINTIN; copies: + +
T2 sequence (looked up) 1: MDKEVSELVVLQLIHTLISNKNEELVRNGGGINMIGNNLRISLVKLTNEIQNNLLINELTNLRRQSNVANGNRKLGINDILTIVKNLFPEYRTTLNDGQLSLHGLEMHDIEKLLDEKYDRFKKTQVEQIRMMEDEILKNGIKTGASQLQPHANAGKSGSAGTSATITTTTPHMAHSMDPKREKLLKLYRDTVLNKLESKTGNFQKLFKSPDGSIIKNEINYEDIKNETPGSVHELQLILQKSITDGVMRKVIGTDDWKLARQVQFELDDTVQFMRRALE
T2 sequence (looked up) 2: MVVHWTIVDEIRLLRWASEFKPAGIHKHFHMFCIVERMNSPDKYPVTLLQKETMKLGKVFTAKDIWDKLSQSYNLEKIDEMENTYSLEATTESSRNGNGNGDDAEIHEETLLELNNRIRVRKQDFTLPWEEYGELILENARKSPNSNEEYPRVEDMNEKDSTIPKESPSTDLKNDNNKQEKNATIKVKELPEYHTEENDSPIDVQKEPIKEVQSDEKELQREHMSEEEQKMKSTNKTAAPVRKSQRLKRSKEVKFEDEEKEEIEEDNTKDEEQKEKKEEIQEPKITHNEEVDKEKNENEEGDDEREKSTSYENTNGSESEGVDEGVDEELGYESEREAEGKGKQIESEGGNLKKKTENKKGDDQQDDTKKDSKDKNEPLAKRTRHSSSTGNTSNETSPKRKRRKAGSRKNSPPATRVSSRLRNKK
T2 sequence (looked up) 3: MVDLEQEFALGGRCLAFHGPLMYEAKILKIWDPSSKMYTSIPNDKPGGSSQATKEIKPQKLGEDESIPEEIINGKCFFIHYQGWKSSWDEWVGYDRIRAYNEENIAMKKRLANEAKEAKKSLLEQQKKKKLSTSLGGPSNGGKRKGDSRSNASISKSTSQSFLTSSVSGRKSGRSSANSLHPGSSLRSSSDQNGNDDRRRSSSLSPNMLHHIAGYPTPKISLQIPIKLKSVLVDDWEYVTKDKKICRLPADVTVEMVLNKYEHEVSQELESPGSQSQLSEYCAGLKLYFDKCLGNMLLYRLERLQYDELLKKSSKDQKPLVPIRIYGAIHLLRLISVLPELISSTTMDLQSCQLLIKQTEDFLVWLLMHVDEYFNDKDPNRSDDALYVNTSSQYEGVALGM
The experiment is described as above. The following applies: both partners purified.

B1: GST-tagged Eaf1 (536–982) (domain or fragment, S. cerevisiae, UniProt Q06337 536-982, looked up)
chain: KKELAPPFKLSIFVDELNTFEKTLIQDLPLYNGINEERPKKDDSLPFIPISKSVVSLDDNGFYKLLERQLIDEEPSISQLSKRRGMFYGNRRNHYLRPPAVPSLRYLQNRTPTIWLSEDDQELVKNINTYGYNWELISAHMTHRLTYSYLSNIERRTPWQCFERFVQLNERFNFSDLKGPRAHSAQQWLIEAHKFQQRQNRRISPLGVNTESIQRGHRRLRWASMFEAIRKCMKKRENTPRPNPTQPRKPLDCKNMKVPTPAEMSLLKAQRDEALRRDIQLRRTVKNRLQQRQQQSQQAHSSRAQSPIPSNGKSSSNLARNGQASAPRPNQKQYTEQDIIESYSRKLLEQKPDIGPEMALKAAKNYYRTLREQQQQLKQHQIQQQRQQLQEESSHVQQLQQLQPGSQAPPPKSSPSQSSLSNISNINSAPRIKSPTPQEILQRFQKQ
notes: also called Eaf1 C-terminal half; C-terminal region of Eaf1; source: recombinant, bacterial culture, held on glutathione sepharose beads
For the molecule B1, in experiment [1], the binding result is listed as “binds”.

B2: GST-tagged Eaf1 (1–530) (domain or fragment, S. cerevisiae, UniProt Q06337 1-530, looked up)
chain: MSSRPSSAVPNSASLSEDQSSDRSKFPKADDLIDERDRKLTELYCVSRLNQLLELTDENKLRKEIDAFLKKNDIRRGIRFDEASLPKLLHTAATPITKKKLKDVNLINVPNQRLSDSKMSRELPENSENVSVKSESHFVPSHDNSIRENMMDSLRPAEKTGGMWNKRPLESTMGGEEERHEKRQKMQSQSLESSNNSEMASLPISPRPPVPNALAHYTYYENIEYPPADPTEVQPAVKFKDPLIKNIMAKEIDTSDHYNENNVDALETVFLLMNDYIPSKIPQALPLAELKYMSQTLPLINLIPRAHKALTTNIINNALNEARITVVGSRIEELRRLGLWSLRQPKRFIDPWKQHNTHQNILLEEAKWMQADFKEGHKYKVAICTAMAQAIKDYWTYGEICCVKRKTLLPGKENKLSDDGRISEKSGRPSDTSRNDSDISIAGKDDIGIIANVDDITEKESAAANDNDENGKNEAGAKSDFDFADGLLSQEGAHDQIISSIDTKLLLKKPSSSSEVVLIQHEVAASSALI
notes: also called Eaf1 N-terminal half; N-terminal portion of Eaf1; source: recombinant, bacterial culture, held on glutathione sepharose beads
As for B2, the binding result in experiment [2] is reported as “binds”.
